Test results from paper PMC6981973.

Molecular target: transferrin receptor (TfR) (human (endogenous in Caco-2)) (UniProt P02786)
Sequence (P02786 whole entry): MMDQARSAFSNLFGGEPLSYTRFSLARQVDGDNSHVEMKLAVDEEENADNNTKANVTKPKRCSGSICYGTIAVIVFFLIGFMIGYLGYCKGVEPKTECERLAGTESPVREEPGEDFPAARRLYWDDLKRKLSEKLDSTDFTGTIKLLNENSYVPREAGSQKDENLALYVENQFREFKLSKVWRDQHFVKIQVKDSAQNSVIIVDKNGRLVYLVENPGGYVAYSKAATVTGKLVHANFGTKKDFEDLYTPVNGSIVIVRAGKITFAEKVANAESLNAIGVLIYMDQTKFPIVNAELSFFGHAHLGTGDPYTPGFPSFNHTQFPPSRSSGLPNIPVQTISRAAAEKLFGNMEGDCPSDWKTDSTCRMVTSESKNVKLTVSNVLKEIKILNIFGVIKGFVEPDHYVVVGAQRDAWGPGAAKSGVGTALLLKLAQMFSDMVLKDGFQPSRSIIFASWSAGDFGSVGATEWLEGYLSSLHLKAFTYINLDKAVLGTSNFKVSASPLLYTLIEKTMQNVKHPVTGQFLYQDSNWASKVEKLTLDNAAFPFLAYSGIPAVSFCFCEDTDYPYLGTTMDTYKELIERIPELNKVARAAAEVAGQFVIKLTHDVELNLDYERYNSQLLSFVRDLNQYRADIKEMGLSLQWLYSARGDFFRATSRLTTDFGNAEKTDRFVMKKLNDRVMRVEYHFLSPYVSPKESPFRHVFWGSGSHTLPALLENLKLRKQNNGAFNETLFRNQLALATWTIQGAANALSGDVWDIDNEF

Sequence of rFIX-Tf/Dithi (P02787 whole entry, looked up): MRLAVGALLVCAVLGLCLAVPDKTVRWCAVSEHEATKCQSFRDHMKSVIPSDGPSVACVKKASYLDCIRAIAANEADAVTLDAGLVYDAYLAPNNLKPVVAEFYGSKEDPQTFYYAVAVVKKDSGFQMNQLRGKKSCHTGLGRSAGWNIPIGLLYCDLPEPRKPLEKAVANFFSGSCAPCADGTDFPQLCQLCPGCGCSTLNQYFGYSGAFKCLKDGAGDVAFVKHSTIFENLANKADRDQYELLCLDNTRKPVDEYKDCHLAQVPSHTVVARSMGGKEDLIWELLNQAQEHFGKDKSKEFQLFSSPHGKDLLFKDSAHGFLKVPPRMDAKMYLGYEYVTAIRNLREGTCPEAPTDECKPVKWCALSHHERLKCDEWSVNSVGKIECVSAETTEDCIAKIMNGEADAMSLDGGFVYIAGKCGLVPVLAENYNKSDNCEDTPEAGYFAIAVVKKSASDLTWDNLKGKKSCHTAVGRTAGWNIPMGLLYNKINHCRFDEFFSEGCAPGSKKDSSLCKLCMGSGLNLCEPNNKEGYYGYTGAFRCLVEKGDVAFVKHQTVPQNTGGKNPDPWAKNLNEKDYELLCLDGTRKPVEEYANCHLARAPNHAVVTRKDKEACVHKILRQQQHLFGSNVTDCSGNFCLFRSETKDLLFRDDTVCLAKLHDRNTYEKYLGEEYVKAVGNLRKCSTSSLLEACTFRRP
Sequence of rFIX-Tf/Dithi (P00740 whole entry, looked up): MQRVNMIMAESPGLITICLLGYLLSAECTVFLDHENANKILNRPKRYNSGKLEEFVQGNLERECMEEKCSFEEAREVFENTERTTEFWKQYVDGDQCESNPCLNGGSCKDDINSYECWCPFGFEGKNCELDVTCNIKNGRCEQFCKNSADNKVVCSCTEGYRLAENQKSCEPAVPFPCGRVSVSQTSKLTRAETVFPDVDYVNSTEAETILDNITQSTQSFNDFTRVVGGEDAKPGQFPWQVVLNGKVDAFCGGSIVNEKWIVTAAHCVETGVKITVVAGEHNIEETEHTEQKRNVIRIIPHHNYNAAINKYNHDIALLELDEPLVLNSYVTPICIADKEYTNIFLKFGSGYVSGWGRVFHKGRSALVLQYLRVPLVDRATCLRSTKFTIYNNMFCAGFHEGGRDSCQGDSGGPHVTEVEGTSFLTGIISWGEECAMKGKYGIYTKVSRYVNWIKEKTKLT

specific (total minus nonspecific with 100-fold excess Tf) apical-to-basolateral transcytosis across Caco-2 monolayers, about 100 mIU/mL apical, 2, 4 and 6 h; protein transport rate at 6 h [%] | specific apical-to-basolateral transcytosis across Caco-2 monolayers at 6 h, fold over BeneFIX [fold] | specific apical-to-basolateral transcytosis across Caco-2 monolayers, fold over FIX-Tf (LE dipeptide linker) [fold] | Substance
0.024 |  |  | BeneFIX^®, a marketed coagulation factor IX (recombinant) product (enzyme)
 | 4.4 | 1.5 | rFIX-Tf/Dithi (from UniProt P00740 47-461; P02787 20-698)
